In patent US20200317768A1 (published 2020):
Positions count from the first letter of the chain named.

T1: cynomolgus monkey FcγRIIIaS extracellular domain, C-terminal His-tag (cynomolgus monkey, UniProt Q8SPW2 21-206 at identity 1.00))
T1 construct: also called cyno FcγRIIIaS; FcgRIIIaS
T1 chain: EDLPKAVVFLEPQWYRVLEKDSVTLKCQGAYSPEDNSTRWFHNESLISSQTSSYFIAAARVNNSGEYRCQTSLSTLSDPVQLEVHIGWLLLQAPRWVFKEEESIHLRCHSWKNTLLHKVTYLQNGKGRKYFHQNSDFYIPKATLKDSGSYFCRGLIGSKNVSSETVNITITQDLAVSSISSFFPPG

T2: cynomolgus monkey FcγRIIa3 extracellular domain, C-terminal His-tag (cynomolgus monkey)
T2 construct: also called cyno FcγRIIa3; FcgRIIa3
T2 chain: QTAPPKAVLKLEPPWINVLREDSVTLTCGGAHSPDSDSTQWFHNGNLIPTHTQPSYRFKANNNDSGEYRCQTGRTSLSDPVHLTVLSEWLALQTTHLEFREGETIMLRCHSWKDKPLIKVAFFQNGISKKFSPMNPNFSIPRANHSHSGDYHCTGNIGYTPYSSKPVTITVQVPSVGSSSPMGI

T3: cynomolgus monkey FcγRIIa1 extracellular domain, C-terminal His-tag (cynomolgus monkey)
T3 construct: also called cyno FcγRIIa1; FcgRIIa1
T3 chain: T2 chain with T95P, A121T, S128A, P133H, N135D

T4: cynomolgus monkey FcγRIIa2 extracellular domain, C-terminal His-tag (cynomolgus monkey)
T4 construct: also called cyno FcγRIIa2; FcgRIIa2
T4 chain: T2 chain with I127K, K130N, P133H, R142Q

T5: cynomolgus monkey FcγRIIb extracellular domain, C-terminal His-tag (cynomolgus monkey)
T5 construct: also called cyno FcγRIIb; cynoFcγRIIb
T5 chain: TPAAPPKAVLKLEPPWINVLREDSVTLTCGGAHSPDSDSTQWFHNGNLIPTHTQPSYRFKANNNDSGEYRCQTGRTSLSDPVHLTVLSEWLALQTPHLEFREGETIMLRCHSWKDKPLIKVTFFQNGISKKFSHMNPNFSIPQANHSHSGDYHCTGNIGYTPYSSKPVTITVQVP

T6: human FcγRIIaH extracellular domain, C-terminal His-tag (human, UniProt P12318 34-217)
T6 construct: also called human FcγRIIa (type H); FcgRIIaH
T6 sequence: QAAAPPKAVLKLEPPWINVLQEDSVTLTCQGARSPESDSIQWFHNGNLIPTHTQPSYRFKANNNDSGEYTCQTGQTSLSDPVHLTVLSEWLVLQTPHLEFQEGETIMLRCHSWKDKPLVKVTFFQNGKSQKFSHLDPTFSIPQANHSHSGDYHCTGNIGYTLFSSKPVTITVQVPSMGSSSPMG

T7: cynomolgus monkey FcγRIIIaS extracellular domain with C-terminal His-tag (cynomolgus monkey, UniProt Q8SPW2 21-206 at identity 1.00))
T7 construct: also called cyno FcgRIIIaS; cynoFcγRIIIaS
T7 chain: T1 chain

T8: human FcγRIIaH extracellular domain with C-terminal His-tag (human, UniProt P12318 34-217)
T8 construct: also called human FcgRIIaH; FcγRIIa (type H)
T8 sequence: T6 sequence

T9: cynomolgus monkey FcγRIIa1 extracellular domain with C-terminal His-tag (cynomolgus monkey)
T9 construct: also called cyno FcgRIIa1; cynoFcγRIIa1
T9 chain: T2 chain with T95P, A121T, S128A, P133H, N135D

B1: MS_M103205H795-SG1/M103202L889-SK1 (antibody, human IgG1, kappa)
heavy: not shown
light: DIVMTQSPATLSLSPGERATLSCTSSQSVYHANWLSWFQQKPGQPPKLLIYWASTLAYGVPSRFSGSGSGTDFTLTISSLQPEDAATYYCAGGYGGGRYAFGQGTKVEIKRTVAAPSVFIFPPSDEQLKSGTASVVCLLNNFYPREAKVQWKVDNALQSGNSQESVTEQDSKDSTYSLSSTLTLSKADYEKHKVYACEVTHQGLSSPVTKSFNRGEC
notes: also called MS1032LO06-SG1
B2: MS_M103205H795-SG1/M103202L889-SK1 (antibody, human IgG1, kappa)
heavy: not shown
light: B1 light
notes: Parent antibody of the Fc variants; also called MS1032LO06-SG1

Experiments:
[1] = target: T1, cynomolgus monkey FcγRIIIaS …; test: SPR; FcgR bound per captured antibody, normalized to SG1
Method: (§1) The kinetic analysis of interactions between these antibodies and FcγR was carried out using BIACORE® T200 or BIACORE® 4000 (GE Healthcare). HBS-EP+ (GE Healthcare) was used as the running buffer, and the measurement temperature was set to 25° C. A chip produced by immobilizing Protein A. Protein A/G or mouse anti-human IgG kappa light chain (BD Biosciences) onto a Series S Sensor Chip CM4 or CM5 (GE Healthcare) by the amine-coupling method was used. […] After the measurement, the antibody captured on the chip was washed off by allowing reaction with 10 mM glycine-HCl, pH1.5 and 25 mM NaOH so that the chip was regenerated and used repeatedly. The sensorgrams obtained as measurement results were analyzed by the 1:1 Langmuir binding model using the BIACORE® Evaluation Software to calculate the binding rate constant ka (L/mol/s) and dissociation rate constant kd (l/s), and the dissociation constant KD (mol/L) was calculated from these values. […] Regarding such interactions, KD values were calculated using the following 1:1 binding model described in BIACORE® T100 Software Handbook BR1006-48 Edition AE.
(§2) The value of the amount of FcγR binding was obtained by dividing the amount of FcγR bound by the amount of each antibody captured.

[2] = target: T2, cynomolgus monkey FcγRIIa3 …; test: as above
Method: as §1, §2

[3] = target: T3, cynomolgus monkey FcγRIIa1 …; test: as above
Method: as §1, §2

[4] = target: T4, cynomolgus monkey FcγRIIa2 …; test: as above
Method: as §1, §2

[5] = target: T5, cynomolgus monkey FcγRIIb extracellular …; test: as above
Method: as §1, §2

[6] = target: T6, human FcγRIIaH extracellular domain, …; test: SPR (BIACORE) 25C, antibody captured, FcgR as analyte
Method: as §1

[7] = target: T1, cynomolgus monkey FcγRIIIaS …; test: as above
Method: as §1

[8] = target: T7, cynomolgus monkey FcγRIIIaS …; test: SPR (BIACORE); KD of SG1 / KD of variant;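 also: relative to parent M103205H795-SG1 carrying the SG1 human heavy chain constant region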
[9] = target: T8, human FcγRIIaH extracellular domain …; test: SPR (BIACORE); KD of SG1 / KD of variant;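 also: relative to parent M103205H795-SG1 carrying the SG1 human heavy chain constant region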
[10] = target: T9, cynomolgus monkey FcγRIIa1 …; test: SPR (BIACORE); KD of SG1 / KD of variant;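 also: relative to parent M103205H795-SG1 carrying the SG1 human heavy chain constant region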

| Binder | amount of FcgR binding (SG1 = 100) [1] [SG1 = 100] | amount of FcgR binding (SG1 = 100) [2] [SG1 = 100] | amount of FcgR binding (SG1 = 100) [3] [SG1 = 100] | amount of FcgR binding (SG1 = 100) [4] [SG1 = 100] | amount of FcgR binding (SG1 = 100) [5] [SG1 = 100] | Kd [6] [nM] | Kd [7] [nM] | KD fold (SG1 = 1) [8] [fold] | KD fold (SG1 = 1) [9] [fold] | KD fold (SG1 = 1) [10] [fold] |
| --- | --- | --- | --- | --- | --- | --- | --- | --- | --- | --- |
| B1 | 100 | 100 | 100 | 100 | 100 | 930 | 420 | – | – | – |
| B2 | – | – | – | – | – | – | – | 1 | 1 | 1 |
